Bridge positions count the residues as written; N and C are the ends. Square brackets hold non-standard residues; d marks the D form. Peptide text beside a SMILES is read from it. * marks the point of attachment. DOTA(p-xylylenediamine) = O=C(O)CN1CCN(CC(=O)O)CCN(CC(=O)NCc2ccc(CN*)cc2)CCN(CC(=O)O)CC1; DOTA = O=C(O)CN1CCN(CC(=O)O)CCN(CC(=O)*)CCN(CC(=O)O)CC1; Tyr(3-Cl) = N[C@@H](Cc1ccc(O)c(Cl)c1)C(=O)O; Hyp = O=C(O)[C@@H]1C[C@@H](O)CN1

One series relates to arterial thrombus. In words: Biodistribution in rat model of carotid artery thrombosis. The settings on record: 120 min post injection, ratio of %ID/g. Type of series: in vivo.
Assay in series [1]: as above
Type of series: in vivo. Conditions: male, Wistar, in vivo, iv, total radioactivity, Biodistribution.

Usually tissue uptake stands for the percentage of the injected dose found per gram of tissue. As for `CC[C@H](C)[C@H](NC(=O)[C@H](Cc1c[nH]cn1)NC(=O)[C@@H]1CSSC[C@H](NC(=O)[C@H](Cc2c[nH]cn2)NC(=O)[C@H](Cc2ccccc2)NC(=O)CN2CCN(CC(=O)O)CCN(CC(=O)O)CCN(CC(=O)O)CC2)C(=O)N2C[C@H](O)C[C@H]2C(=O)N[C@@H](Cc2ccc(O)c(Cl)c2)C(=O)N[C@@H](CC(=O)O)C(=O)N[C@@H](CC(C)C)C(=O)N1)C(=O)N[C@@H](CC(C)C)C(=O)NCc1ccc(CNC(=O)CN2CCN(CC(=O)O)CCN(CC(=O)O)CCN(CC(=O)O)CC2)cc1` [FBP2] ({DOTA}-FHC[Hyp][Tyr(3-Cl)]DLCHIL-{DOTA(p-xylylenediamine)}; disulfide 3-8), the “thrombus uptake relative to blood” value in the series with arterial thrombus is given as more than 2.5 fold. Moreover, the tissue uptake at 2 h was found to be 0.164 ± 0.016 %ID/g in series [1] (blood); 0.043 ± 0.015 %ID/g in series [1] (bone); 0.017 ± 0.004 %ID/g in series [1] (brain); 0.445 ± 0.102 %ID/g in series [1] (clot); 0.074 ± 0.011 %ID/g in series [1] (heart); 0.278 ± 0.095 %ID/g in series [1] (intestine). The tissue uptake at 2 h in series [1] (kidney) amounted to 2.72 ± 0.848 %ID/g; in series [1] (liver), 0.617 ± 0.187 %ID/g; in series [1] (lungs), 0.048 ± 0.01 %ID/g; in series [1] (muscle), 0.012 ± 0.003 %ID/g; in series [1] (spleen), 0.071 ± 0.016 %ID/g.
Take `CC[C@H](C)[C@H](NC(=O)[C@H](Cc1ccc(O)cc1)NC(=O)[C@@H]1CSSC[C@H](NC(=O)[C@@H](CCC(=O)O)NC(=O)[C@H](Cc2ccc(O)cc2)NC(=O)CN2CCN(CC(=O)O)CCN(CC(=O)O)CCN(CC(=O)O)CC2)C(=O)N2C[C@H](O)C[C@H]2C(=O)N[C@@H](Cc2ccc(O)c(Cl)c2)C(=O)NCC(=O)N[C@@H](CC(C)C)C(=O)N1)C(=O)N[C@@H](CCC(N)=O)C(=O)NCc1ccc(CNC(=O)CN2CCN(CC(=O)O)CCN(CC(=O)O)CCN(CC(=O)O)CC2)cc1` [FBP1] ({DOTA}-Y[dE]C[Hyp][Tyr(3-Cl)]GLCYIQ-{DOTA(p-xylylenediamine)}; disulfide 3-8): in the series on arterial thrombus, the “thrombus uptake relative to blood” value is on record as more than 2.5 fold.
For the compound `CC[C@H](C)[C@H](NC(=O)[C@H](Cc1c[nH]c2ccccc12)NC(=O)[C@@H]1CSSC[C@H](NC(=O)[C@H](CCC(=O)O)NC(=O)[C@H](Cc2c[nH]c3ccccc23)NC(=O)CN2CCN(CC(=O)O)CCN(CC(=O)O)CCN(CC(=O)O)CC2)C(=O)N2C[C@H](O)C[C@H]2C(=O)N[C@@H](Cc2ccc(O)c(Cl)c2)C(=O)NCC(=O)N[C@@H](CC(C)C)C(=O)N1)C(=O)N[C@@H](CCC(N)=O)C(=O)NCc1ccc(CNC(=O)CN2CCN(CC(=O)O)CCN(CC(=O)O)CCN(CC(=O)O)CC2)cc1` [FBP3] ({DOTA}-WEC[Hyp][Tyr(3-Cl)]GLCWIQ-{DOTA(p-xylylenediamine)}; disulfide 3-8), the “thrombus uptake relative to blood” value with arterial thrombus is “no difference”. In addition, the tissue uptake at 2 h was determined as 0.184 ± 0.026 %ID/g in series [1] (blood); 0.041 ± 0.011 %ID/g in series [1] (bone); 0.011 ± 0.003 %ID/g in series [1] (brain); 0.183 ± 0.088 %ID/g in series [1] (clot); 0.082 ± 0.01 %ID/g in series [1] (heart); 0.184 ± 0.053 %ID/g in series [1] (intestine). In addition, the tissue uptake at 2 h was 0.621 ± 0.186 %ID/g in series [1] (kidney); 1.46 ± 0.292 %ID/g in series [1] (liver); 0.066 ± 0.008 %ID/g in series [1] (lungs); 0.009 ± 0.001 %ID/g in series [1] (muscle); 0.04 ± 0.006 %ID/g in series [1] (spleen).

The values above are taken from publication PMC3593967 (Molecular pharmaceutics, 2013).
